Data on five molecules can be found in patent US11938198B2, “Treatment of heart disease by disruption of the anchoring of PP2A” (University of Miami, priority 2019, dated 2024).

For data set [1], the target named is PP2A endogenous in HEK293 cells, detected as PP2A-C subunit or as okadaic acid-sensitive phosphatase activity. The experiment in a line: cell-based or functional assay.
The test system of data set [2] is T1, myc-tagged rat mAKAP PP2A Binding Domain (myc-PBD, rat mAKAP aa 2134-2314).
T1 sequence: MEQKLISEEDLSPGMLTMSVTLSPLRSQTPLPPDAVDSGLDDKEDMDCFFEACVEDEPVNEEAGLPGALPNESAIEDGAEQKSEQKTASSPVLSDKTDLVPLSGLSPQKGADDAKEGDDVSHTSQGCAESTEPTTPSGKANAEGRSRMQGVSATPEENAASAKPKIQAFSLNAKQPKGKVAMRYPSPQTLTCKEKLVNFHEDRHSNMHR

Data set [3] concerns endogenous rat mAKAPβ (native mAKAP of adult rat heart extracts and neonatal rat ventricular myocytes).
Data set [4] has as its system T2, myc-tagged rat mAKAP 1286-2083 (lacking the PP2A binding site).
T2 sequence: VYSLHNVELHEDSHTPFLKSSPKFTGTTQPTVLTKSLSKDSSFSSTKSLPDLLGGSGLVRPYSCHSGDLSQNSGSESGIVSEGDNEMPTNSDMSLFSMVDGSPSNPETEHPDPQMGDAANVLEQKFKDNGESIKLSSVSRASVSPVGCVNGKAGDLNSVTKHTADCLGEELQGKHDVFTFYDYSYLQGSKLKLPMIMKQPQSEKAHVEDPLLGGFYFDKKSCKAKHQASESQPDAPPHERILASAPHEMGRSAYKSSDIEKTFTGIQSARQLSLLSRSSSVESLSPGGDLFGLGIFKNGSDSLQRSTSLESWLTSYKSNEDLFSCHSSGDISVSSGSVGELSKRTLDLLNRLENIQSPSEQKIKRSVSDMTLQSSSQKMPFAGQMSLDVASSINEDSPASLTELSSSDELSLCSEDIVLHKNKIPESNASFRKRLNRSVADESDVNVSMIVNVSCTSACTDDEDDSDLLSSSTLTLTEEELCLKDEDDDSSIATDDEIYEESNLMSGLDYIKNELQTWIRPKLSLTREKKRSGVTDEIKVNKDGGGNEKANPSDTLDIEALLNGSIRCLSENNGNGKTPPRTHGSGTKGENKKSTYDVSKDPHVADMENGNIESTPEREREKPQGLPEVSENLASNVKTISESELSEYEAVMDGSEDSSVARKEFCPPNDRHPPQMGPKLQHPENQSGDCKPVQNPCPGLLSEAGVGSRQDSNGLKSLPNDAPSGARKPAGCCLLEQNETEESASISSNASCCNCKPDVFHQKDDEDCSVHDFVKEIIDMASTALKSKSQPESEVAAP

Data set [5] concerns the target T3, myc-tagged, green fluorescent protein (GFP) RBD-fusion protein (mAKAP aa 1694-1833).
T3 chain: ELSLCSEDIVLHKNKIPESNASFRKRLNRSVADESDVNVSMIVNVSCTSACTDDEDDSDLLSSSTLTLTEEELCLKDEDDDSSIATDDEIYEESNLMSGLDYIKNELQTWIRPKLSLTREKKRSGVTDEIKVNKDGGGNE

The subject of data set [6] is adult rat ventricular myocytes (ARVM). The data set can be described thus: ARVM morphologic hypertrophy (cell width and length by immunocytochemistry). It counts as cell-based. Particulars: adenoviral expression, no drug. On the procedure:
Adult rat ventricular myocyte isolation and culture: 2-3 month old rats were anesthetized using Ketamine (80-100 mg/kg) and Xylazine (5-10 mg/kg) IP following 1000 U heparinization for cardiac excision. The heart was transferred immediately into chilled perfusion buffer (NaCl 120 mM, KCl 5.4 mM, Na2HPO4·7H2O 1.2 mM, NaHCO320.0 mM, MgCl2·6H2O 1.6 mM, Taurine 5 mM, Glucose 5.6 mM, 2,3-Butanedione monoxime 10 mM) pre-equilibrated with 95% O2 and 5% CO2. After removal of extraneous tissue, the heart was attached via the aorta to a Harvard Langendorff apparatus cannula. Ca^2+-free perfusion was used to flush out remaining blood with a constant rate of 8-10 mL/min at 37° C. The heart was then digested through circulatory perfusion with 50 mL perfusion buffer containing 125 mg type II collagenase (Worthington, 245 U/mg), 0.1 mg protease (Sigma type XIV) and 0.1% BSA. After perfusion, the atria were removed and the ventricular myocytes dissociated by slicing and repetitive pipetting. The debris was filtered by a 200 μm nylon mesh, and the myocytes collected by one minute centrifugation at 50 g. Ca^2+ concentration in the buffer was gradually recovered to 1.8 mM and the myocytes were resuspended in ACCT medium (M199 Medium (Invitrogen 11150-059), Creatine 5 mM, L-carnitine 2 mM, Taurine 5 mM, HEPES 25 mM, 2,3-Butanedione monoxime 10 mM, BSA 0.2% and 1×Insulin-Transferrin-Selenium Supplement) and plated on 10 μg/ml laminin pre-coated dishes. Cells were washed with ACCT medium 1.5 hours after plating and subjected to adenoviral infection or siRNA transfection, in which 100-200 Multiplicity of Infection (MOI) of adenovirus and 100 nmol/L siRNA mixed with Dharmafect1 (Dharmacon) were used, respectively. Adrenergic agonists were added the next day, with biochemical assay and morphological measurement performed after 24 hours of stimulation.
Immunocytochemistry: Myocytes on coverslips were fixed in 3.7% formaldehyde in PBS for 1 hour, permeabilized with 0.3% Triton X-100, and blocked in PBS containing 0.2% BSA and 1% horse serum. The slides were then sequentially incubated for 1 hour with primary and Alexa fluorescent dye-conjugated specific-secondary antibodies (Invitrogen, 1:1000) diluted in blocking buffer. The slips were washed three times with blocking buffer. 1 μg/mL Hoechst 33258 was included in the last wash stop to label nuclei. Slides were sealed in SlowFade Gold antifade buffer (Invitrogen, S36938) for fluorescent microscopy. Wide-field images were acquired using a Leica DM4000 Microscope.

The next data set has as its target T4, PP2A (Homo sapiens, UniProt P30153+P67775).
T4 construct: endogenous in cells; host or cells: HEK293
The experiment in a line: myc-tag immunoprecipitation of mAKAP fragments from HEK293 cells with phosphatase assay. Type of data set: binding. The conditions noted are these: myc-tagged fragments expressed in HEK293 cells. On the procedure:
(§1) Immunoprecipitation—HEK293 cells were used in this project as a heterologous system lacking mAKAP in which the various wildtype and mutant proteins could be easily expressed. Cells cultured on 60 mm plates were transfected at 50%-70% confluency by the calcium phosphate method, using 6 μg of each DNA construct per plate. Cells were harvested 24 hours after transfection in 0.5 ml HSE buffer (HEPES, pH 7.4, 150 mM NaCl, 5 mM EDTA, 1% Triton X-100 and protease inhibitors). Supernatants were incubated with 3 μg antibody and 15 μl prewashed protein A- or G-agarose beads. Following overnight incubation at 4° C., the immunoprecipitates were washed three times with the same buffer. Bound proteins were analyzed by immunoblotting.
To measure phosphatase activity, immunoprecipitated protein complexes were washed twice in HSE buffer and once in PP2A reaction buffer. The immunoprecipitates were incubated for 30 minutes at 30° C. in 20 μl PP2A assay buffer containing 100,000 cpm [^32P]histone in the presence and absence of inhibitors. The PP2A inhibitor (Calbiochem) was used at a concentration of 30 nM. Purified I-1 was phosphorylated by PKA before using as a specific PP1 inhibitor. Reactions were terminated by the addition of 100 μl 20% TCA followed by 10 min centrifugation. TCA supernatants containing released ^32PO4 were measured by scintillation counting. […]

The next data set deals with PDE4D3 Ser-54. The data set can be described thus: PDE4D3 Ser-54 phosphorylation in mAKAP immunoprecipitates from transfected HEK293 cells (phospho-specific immunoblot). It counts as cell-based. Particulars: HEK293 cells expressing PDE4D3 and mAKAP construct lacking the PP2A binding site.
The subject of a further data set is mAKAP-bound PDE4D3. The experiment in a line: PDE activity associated with mAKAP immunoprecipitates from transfected HEK293 cells ([3H]cAMP). It counts as cell-based. Particulars: unstimulated (bar 1 and 4). On the procedure: as §1, with “immunoblotting. […]” for “immunoblotting.”
As phosphorylation of PDE4D3 Ser-54 increases phosphodiesterase activity 2 fold (Sette and Conti 1996), whether OA treatment would also increase the activity of mAKAP-bound PDE4D3 was tested. mAKAP complexes were immunoprecipitated from transfected HEK293 cells and assayed for associated phosphodiesterase activity (FIG. 8B). mAKAP-associated phosphodiesterase activity in untreated cells was detected only when mAKAP was co-expressed with PDE4D3 (FIG. 8B, bar 1, and data not shown), consistent with a previous observation that PDE4D3 accounts for all of the phosphodiesterase activity associated with mAKAP in cardiac myocytes (Dodge et al. 2001).

T4 sequence (P67775 whole entry): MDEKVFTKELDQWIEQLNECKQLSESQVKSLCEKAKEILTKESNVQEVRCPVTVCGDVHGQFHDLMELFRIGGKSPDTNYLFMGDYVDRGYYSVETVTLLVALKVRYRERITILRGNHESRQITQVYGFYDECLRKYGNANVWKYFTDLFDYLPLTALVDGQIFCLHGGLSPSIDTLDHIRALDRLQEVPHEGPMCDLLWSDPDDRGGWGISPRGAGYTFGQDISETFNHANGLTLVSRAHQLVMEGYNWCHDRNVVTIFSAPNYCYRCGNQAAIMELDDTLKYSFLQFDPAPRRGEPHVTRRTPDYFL
T4 sequence (P30153 whole entry): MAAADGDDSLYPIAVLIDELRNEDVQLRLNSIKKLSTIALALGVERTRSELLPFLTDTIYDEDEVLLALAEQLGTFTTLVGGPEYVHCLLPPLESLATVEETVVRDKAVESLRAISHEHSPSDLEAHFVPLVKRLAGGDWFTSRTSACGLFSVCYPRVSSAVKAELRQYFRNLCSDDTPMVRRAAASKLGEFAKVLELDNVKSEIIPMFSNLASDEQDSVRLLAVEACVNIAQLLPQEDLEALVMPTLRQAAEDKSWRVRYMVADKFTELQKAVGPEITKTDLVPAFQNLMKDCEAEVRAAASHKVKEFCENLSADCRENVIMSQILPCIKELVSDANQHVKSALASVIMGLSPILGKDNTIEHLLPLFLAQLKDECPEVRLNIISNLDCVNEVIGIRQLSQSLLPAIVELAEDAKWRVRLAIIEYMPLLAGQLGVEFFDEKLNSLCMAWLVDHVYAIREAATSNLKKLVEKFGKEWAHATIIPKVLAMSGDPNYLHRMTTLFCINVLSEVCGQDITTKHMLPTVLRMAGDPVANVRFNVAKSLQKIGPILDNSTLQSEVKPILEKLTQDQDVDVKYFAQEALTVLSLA

“myc-tagged rat mAKAP 1286-2083 (lacking the PP2A binding site) (from UniProt Q9WVC7 1286-2083)”: the PDE4D3 activity in myc-tag immunoprecipitates in [1] is 30 % higher.
Take “endogenous PP2A of rat heart and rat ventricular myocytes, detected as PP2A catalytic subunit (PP2A-C)”: the “Iso-induced SRF Ser103 phosphorylation in ARVM” value in data set [2] was “PBD expression potentiated the induction of SRF Ser^103 phosphorylation in ARVM stimulated with the β-adrenergic isoproterenol”. The “phosphatase activity associated with mAKAP immunoprecipitates from heart extracts ([32P]histone substrate)” value in [3] is listed as 3-fold enrichment of phosphatase activity over control IgG immunoprecipitates.
In the case of “PP2A endogenous in HEK293 cells, detected as PP2A-C subunit or as okadaic acid-sensitive phosphatase activity”, the “baseline phosphorylation of mAKAP-bound PDE4D3 Ser-54” value in data set [4] was 0.49±0.19 fold of the level obtained with OA.

B1: endogenous RSK3 of rat ventricular myocytes (protein)
chain: MELNMKKFTVRRFFSVYLRKKSRSKSSSLSRLEEEGIVKEIDISSHVKEGFEKADPSQFELLKVLGQGSYGKVFLVRKVTGSDAGQLYAMKVLKKATLKVRDRVRSKMERDILAEVNHPFIVKLHYAFQTEGKLYLILDFLRGGDLFTRLSKEVMFTEEDVKFYLAELALALDHLHGLGIIYRDLKPENILLDEEGHIKITDFGLSKEAIDHDKRAYSFCGTIEYMAPEVVNRRGHTQSADWWSFGVLMFEMLTGSLPFQGKDRKETMALILKAKLGMPQFLSAEAQSLLRALFKRNPCNRLGAGVDGVEEIKRHPFFVTIDWNKLYRKEIKPPFKPAVGRPEDTFHFDPEFTARTPTDSPGVPPSANAHHLFRGFSFVASSLVQEPSQQDVPKAPIHPIVQQLHGNNIHFTDGYEIKEDIGVGSYSVCKRCVHKATDAEYAVKIIDKSKRDPSEEIEILLRYGQHPNIITLKDVYDDGKYVYLVMELMRGGELLDRILRQRCFSEREASDVLYTIARTMDYLHSQGVVHRDLKPSNILYMDESGNPESIRICDFGFAKQLRAENGLLMTPCYTANFVAPEVLKRQGYDAACDVWSLGILLYTMLAGFTPFANGPDDTPEEILARIGSGKYALSGGNWDSISDAAKDVVSKMLHVDPQQRLTAVQVLKHPWIVNREYLSQNQLSRQDVHLVKGAMAATYFALNRTPQAPRLEPVLSSSLAQRRGMKRLTSTRL
In the case of B1, the “PE-induced SRF Ser103 phosphorylation in NRVM and ARVM” value in data set [5] was “inhibited PE-induced SRF Ser^103 phosphorylation in both NRVM and primary adult rat ventricular myocyte cultures”. Moreover, in data set [6], the “basal ARVM morphology” value is listed as “selectively increased the width”.

B2: mAKAP 1286-2083: myc-tagged rat mAKAP 1286-2083 construct deficient in PP2A binding (protein)
chain: T2 sequence
modifications: left off: small tags and cut ends
For the molecule B2, in the data set with PP2A, the “co-immunoprecipitation with OA-sensitive phosphatase activity” value is recorded as “not”. In addition, the “baseline phosphorylation of mAKAP-bound PDE4D3, fold of the level obtained with OA” value in the data set with PDE4D3 Ser-54 was determined as 0.49±0.19 fold. The “PDE4D3 activity higher in immunoprecipitates lacking PP2A than in complexes containing the phosphatase” value in the data set with mAKAP-bound PDE4D3 is 30%.
